Measurements from patent publication US6699869.

Target: T1, (D)FPR-PNA
T1 chain: FPR

B1: human Factor VIIa (FVIIa) and human tissue factor (TF) complex (protein)
chain 1: ANAFLEELRPGSLERECKEEQCSFEEAREIFKDAERTKLFWISYSDGDQCASSPCQNGGSCKDQLQSYICFCLPAFEGRNCETHKDDQLICVNENGGCEQYCSDHTGTKRSCRCHEGYSLLADGVSCTPTVEYPCGKIPILEKRNASKPQGRIVGGKVCPKGECPWQVLLLVNGAQLCGGTLINTIWVVSAAHCFDKIKNWRNLIAVLGEHDLSEHDGDEQSRRVAQVIIPSTYVPGTTNHDIALLRLHQPVVLTDHVVPLCLPERTFSERTLAFVRFSLVSGWGQLLDRGATALELMVLNVPRLMTQDCLQQSRKVGDSPNITEYMFCAGYSDGSKDSCKGDSGGPHATHYRGTWYLTGIVSWGQGCATVGHFGVYTRVSQYIEWLQKLMRSEPRPGVLLRAPFP
chain 2: SGTTNTVAAYNLTWKSTNFKTILEWEPKPVNQVYTVQISTKSGDWKSKCFYTTDTECDLTDEIVKDVKQTYLARVFSYPAGNVESTGSAGEPLYENSPEFTPYLETNLGQPTIQSFEQVGTKVNVTVEDERTLVRRNNTFLSLRDVFGKDLIYTLYYWKSSSSGKKTAKTNTNEFLIDVDKGENYCFSVQAVIPSRTVNRKSTDSPVECMGQEKGEFRE
  Kcat/KM of substrate hydrolysis: Factor VII: Kcat/KM=1.27×10^4 M^-1 S^-1
